Data published in the supplement of paper PMC10065799, “High-throughput profiling of sequence recognition by tyrosine kinases and SH2 domains using bacterial peptide display” (eLife, 2023).

Columns and labels:
MERTK = MERTK (UniProt Q12866); assay: phosphorylation enrichment, bacterial display (enrichment ratio); higher = better substrate or ligand; peptides without Tyr show the background
Fer (mouse) = assay: as above
Jak2 = Jak2 (UniProt O60674); assay: as above
Fyn = Fyn (UniProt P06241); assay: as above
FGFR3 = FGFR3 (UniProt P22607); assay: as above
EPHB2 = EPHB2 (UniProt P29323); assay: as above
EPHB1 = EPHB1 (UniProt P54762); assay: as above
Hck = Hck (UniProt P08631); assay: as above
AncSZ = assay: as above
Fes = Fes (UniProt P07332); assay: as above
FGFR1 = FGFR1 (UniProt P11362); assay: as above
c-Src = assay: as above
c-Abl (mouse) = assay: as above
SHP2-C SH2 = assay: SH2 binding enrichment of the phosphorylated peptide, bacterial display (enrichment ratio); higher = better substrate or ligand; peptides without Tyr show the background
c-Src SH2 = assay: as above
Grb2 SH2 = Grb2 SH2 (UniProt P62993); assay: as above
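Wherever SH2 binding enrichment of the phosphorylated peptide, bacterial display is given: peptide library displayed on the E. coli surface as eCPX fusions, selected cells deep-sequenced, score is each peptide's frequency after selection divided by its frequency in the input.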
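Wherever phosphorylation enrichment, bacterial display is given: 11-residue human phosphosite peptides and single-mutation variants displayed on the E. coli surface, counted by deep sequencing, each peptide's frequency after selection divided by its frequency in the unselected input library; frequency after pTyr selection over input frequency; kinase dosed for 20-30% of maximal phosphorylation in three min.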

Chain of FGFR3 (P22607 whole entry, looked up): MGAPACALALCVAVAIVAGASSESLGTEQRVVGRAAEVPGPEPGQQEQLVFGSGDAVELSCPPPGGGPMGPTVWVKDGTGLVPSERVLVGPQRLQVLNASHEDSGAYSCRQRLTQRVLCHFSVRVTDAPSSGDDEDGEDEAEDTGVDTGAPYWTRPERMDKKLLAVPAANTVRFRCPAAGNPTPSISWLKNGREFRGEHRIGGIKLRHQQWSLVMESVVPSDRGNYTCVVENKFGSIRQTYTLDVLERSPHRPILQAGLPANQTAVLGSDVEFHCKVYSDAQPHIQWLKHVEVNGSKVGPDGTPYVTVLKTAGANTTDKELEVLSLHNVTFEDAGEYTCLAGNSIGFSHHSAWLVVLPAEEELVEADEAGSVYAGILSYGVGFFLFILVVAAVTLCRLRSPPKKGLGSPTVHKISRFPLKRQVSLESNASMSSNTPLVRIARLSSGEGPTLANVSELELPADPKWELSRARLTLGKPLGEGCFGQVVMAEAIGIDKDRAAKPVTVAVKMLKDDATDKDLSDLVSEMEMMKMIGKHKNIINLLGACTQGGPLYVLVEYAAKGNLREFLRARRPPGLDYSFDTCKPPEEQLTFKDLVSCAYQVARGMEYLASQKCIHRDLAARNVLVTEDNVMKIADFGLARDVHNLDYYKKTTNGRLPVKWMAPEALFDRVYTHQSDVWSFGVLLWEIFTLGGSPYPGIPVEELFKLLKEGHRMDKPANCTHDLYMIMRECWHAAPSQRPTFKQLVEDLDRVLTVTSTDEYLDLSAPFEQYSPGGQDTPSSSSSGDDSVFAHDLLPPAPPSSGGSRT
Chain of Jak2 (O60674 whole entry, looked up): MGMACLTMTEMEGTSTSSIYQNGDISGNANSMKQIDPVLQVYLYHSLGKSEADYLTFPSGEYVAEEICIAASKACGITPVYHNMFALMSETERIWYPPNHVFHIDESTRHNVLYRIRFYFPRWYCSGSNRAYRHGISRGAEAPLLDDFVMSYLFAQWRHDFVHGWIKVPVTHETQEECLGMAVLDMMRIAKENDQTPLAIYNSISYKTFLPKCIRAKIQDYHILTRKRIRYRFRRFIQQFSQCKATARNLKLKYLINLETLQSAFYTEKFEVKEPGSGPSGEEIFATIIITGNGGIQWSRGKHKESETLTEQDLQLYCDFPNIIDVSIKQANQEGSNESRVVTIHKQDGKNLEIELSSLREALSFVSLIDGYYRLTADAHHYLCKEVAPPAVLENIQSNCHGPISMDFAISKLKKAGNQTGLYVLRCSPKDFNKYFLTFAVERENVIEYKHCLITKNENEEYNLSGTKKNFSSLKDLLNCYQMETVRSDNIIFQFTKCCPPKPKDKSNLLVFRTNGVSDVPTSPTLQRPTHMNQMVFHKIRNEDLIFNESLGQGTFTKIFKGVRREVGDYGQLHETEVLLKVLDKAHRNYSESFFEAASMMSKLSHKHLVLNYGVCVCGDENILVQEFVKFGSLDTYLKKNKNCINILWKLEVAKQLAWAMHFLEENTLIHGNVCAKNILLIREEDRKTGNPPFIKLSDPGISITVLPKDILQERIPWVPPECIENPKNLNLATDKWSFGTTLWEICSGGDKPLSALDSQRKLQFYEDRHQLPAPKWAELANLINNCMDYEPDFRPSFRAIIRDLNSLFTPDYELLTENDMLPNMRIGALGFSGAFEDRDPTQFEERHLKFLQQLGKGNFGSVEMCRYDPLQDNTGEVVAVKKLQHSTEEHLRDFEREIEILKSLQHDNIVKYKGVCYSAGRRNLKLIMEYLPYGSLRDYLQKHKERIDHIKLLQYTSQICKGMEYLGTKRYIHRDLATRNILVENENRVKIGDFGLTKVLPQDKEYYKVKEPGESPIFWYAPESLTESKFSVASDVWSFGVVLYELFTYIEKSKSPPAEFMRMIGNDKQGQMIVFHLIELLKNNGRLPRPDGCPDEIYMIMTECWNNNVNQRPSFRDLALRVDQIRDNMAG
Chain of FGFR1 (P11362 whole entry, looked up): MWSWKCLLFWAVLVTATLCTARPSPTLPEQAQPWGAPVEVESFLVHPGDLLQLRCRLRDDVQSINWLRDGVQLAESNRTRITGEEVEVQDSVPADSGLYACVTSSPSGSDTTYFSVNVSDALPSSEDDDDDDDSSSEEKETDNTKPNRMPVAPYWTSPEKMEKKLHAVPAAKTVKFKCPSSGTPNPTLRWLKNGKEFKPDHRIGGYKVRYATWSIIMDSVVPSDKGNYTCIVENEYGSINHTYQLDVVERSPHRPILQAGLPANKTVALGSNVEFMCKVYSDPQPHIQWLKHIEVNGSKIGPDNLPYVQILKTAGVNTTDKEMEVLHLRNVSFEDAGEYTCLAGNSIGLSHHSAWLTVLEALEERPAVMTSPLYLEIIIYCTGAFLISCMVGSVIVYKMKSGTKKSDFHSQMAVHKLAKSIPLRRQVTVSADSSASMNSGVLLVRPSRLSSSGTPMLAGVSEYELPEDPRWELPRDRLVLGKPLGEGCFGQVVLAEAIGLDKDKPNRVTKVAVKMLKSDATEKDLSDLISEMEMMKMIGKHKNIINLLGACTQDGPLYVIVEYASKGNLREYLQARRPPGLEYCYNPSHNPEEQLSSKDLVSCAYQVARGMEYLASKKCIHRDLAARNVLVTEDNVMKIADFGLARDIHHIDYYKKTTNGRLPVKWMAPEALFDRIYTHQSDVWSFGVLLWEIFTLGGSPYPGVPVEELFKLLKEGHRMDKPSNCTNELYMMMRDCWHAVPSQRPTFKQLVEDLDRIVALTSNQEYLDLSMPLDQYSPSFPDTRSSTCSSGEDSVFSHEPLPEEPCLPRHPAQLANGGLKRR
Chain of EPHB2 (P29323 whole entry, looked up): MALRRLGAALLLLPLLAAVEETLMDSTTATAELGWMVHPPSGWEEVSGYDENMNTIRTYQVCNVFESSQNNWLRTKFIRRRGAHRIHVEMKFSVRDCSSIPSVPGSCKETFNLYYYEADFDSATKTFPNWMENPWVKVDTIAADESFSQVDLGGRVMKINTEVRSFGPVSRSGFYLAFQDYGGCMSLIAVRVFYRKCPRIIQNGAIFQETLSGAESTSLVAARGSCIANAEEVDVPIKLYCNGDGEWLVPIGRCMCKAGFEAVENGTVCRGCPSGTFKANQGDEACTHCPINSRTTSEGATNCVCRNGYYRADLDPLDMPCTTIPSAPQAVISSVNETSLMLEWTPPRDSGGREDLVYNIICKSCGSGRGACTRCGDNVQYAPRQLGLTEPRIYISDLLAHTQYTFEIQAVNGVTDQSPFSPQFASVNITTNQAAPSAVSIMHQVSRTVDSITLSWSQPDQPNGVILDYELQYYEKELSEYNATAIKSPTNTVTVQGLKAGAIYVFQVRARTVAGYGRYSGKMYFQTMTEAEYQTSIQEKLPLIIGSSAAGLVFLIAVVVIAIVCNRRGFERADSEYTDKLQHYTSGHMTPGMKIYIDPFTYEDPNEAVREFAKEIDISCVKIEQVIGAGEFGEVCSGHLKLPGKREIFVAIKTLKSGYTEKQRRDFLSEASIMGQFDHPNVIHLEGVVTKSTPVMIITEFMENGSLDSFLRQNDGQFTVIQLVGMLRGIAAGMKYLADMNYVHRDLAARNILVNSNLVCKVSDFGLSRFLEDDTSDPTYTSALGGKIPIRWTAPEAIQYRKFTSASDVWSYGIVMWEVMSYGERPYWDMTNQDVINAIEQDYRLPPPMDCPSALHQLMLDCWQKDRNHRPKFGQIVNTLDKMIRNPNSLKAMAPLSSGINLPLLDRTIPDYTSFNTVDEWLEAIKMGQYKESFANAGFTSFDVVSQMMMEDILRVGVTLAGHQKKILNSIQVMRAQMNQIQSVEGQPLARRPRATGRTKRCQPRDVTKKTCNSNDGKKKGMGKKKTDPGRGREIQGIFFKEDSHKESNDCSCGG
Chain of Fyn (P06241 whole entry, looked up): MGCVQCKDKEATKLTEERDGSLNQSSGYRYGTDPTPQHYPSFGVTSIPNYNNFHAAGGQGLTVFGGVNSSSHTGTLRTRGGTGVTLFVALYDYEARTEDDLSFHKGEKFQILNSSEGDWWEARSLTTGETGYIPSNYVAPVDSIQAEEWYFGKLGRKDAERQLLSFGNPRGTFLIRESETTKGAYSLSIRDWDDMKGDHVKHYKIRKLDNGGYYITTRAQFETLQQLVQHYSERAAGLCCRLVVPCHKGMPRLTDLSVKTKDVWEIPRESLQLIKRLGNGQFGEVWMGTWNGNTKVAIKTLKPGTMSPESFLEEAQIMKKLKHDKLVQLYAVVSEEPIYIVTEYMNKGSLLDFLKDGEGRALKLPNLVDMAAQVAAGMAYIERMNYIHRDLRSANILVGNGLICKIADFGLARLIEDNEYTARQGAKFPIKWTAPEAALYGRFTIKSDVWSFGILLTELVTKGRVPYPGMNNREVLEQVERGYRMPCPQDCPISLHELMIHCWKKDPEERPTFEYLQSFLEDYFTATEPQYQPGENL
Chain of Hck (P08631 whole entry, looked up): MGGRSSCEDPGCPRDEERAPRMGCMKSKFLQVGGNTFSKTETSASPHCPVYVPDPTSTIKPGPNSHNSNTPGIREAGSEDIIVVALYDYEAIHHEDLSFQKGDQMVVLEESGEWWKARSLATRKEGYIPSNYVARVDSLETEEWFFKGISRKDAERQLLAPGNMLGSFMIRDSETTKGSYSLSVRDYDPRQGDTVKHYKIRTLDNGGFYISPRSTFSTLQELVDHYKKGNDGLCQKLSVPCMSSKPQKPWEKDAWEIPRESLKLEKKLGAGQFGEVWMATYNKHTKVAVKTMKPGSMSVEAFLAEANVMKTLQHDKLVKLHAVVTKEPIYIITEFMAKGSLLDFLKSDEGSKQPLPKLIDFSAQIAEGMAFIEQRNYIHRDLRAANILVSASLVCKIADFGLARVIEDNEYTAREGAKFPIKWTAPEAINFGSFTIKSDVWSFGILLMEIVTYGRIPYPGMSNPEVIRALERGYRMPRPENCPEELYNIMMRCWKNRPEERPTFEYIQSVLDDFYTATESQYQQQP

SH2 binding enrichment (SHP2-C SH2) | SH2 binding enrichment (c-Src SH2) | SH2 binding enrichment (Grb2 SH2) | Sequence | phosphorylation enrichment (MERTK) | phosphorylation enrichment (Fer (mouse)) | phosphorylation enrichment (Jak2) | phosphorylation enrichment (Fyn) | phosphorylation enrichment (FGFR3) | phosphorylation enrichment (EPHB2) | phosphorylation enrichment (EPHB1) | phosphorylation enrichment (Hck) | phosphorylation enrichment (AncSZ) | phosphorylation enrichment (Fes) | phosphorylation enrichment (FGFR1) | phosphorylation enrichment (c-Src) | phosphorylation enrichment (c-Abl (mouse))
0.683 | 0.57 | 0.821 | AAILGYCRGEA [XPC_Y669] | 0.413 | 0.419 | 0.786 | 0.438 | 0.556 | 0.45 | 0.567 | 0.467 | 0.789 | 1.02 | 0.541 | 0.372 | 0.718
0.626 | 0.708 | 0.728 | ERIEFYELDKK [PMM2_Y145] | 0.393 | 0.742 | 0.892 | 0.484 | 0.76 | 0.554 | 0.652 | 0.588 | 1.05 | 1.09 | 0.395 | 0.49 | 0.771
0.557 | 0.488 | 0.706 | VRRRSYSAGNA [KANK1_Y324_K321R] | 0.509 | 0.664 | 0.471 | 0.504 | 0.742 | 0.603 | 0.404 | 0.516 | 0.567 | 0.49 | 0.549 | 0.58 | 0.613
0.709 | 0.542 | 0.702 | KLFFHYDPKLC [INSR_Y457_N458D] | 0.382 | 0.47 | 0.961 | 0.342 | 0.67 | 0.516 | 0.643 | 0.327 | 1.01 | 1.25 | 0.423 | 0.361 | 0.948
0.562 | 0.461 | 0.908 | LEGEEYRMSGE [KRT3_Y511] | 0.462 | 0.937 | 1.58 | 0.797 | 0.929 | 0.598 | 0.891 | 0.531 | 1.69 | 1.41 | 0.574 | 0.525 | 0.956
0.769 | 0.572 | 0.979 | SGDDGYAKDAQ [TENM4_Y1530_K1535Q] | 0.418 | 0.557 | 0.832 | 0.508 | 0.615 | 0.394 | 0.446 | 0.493 | 0.818 | 0.866 | 0.45 | 0.379 | 0.575
1.09 | 1.04 | 1.35 | KWKQKYEESQS [MYH6_Y1462_E1457K] | 0.431 | 0.405 | 0.85 | 0.481 | 0.693 | 0.52 | 0.508 | 0.531 | 0.671 | 0.887 | 0.431 | 0.38 | 0.73
0.634 | 0.542 | 0.933 | DASAVYLHDFQ [PLCG2_Y242] | 0.477 | 0.474 | 0.792 | 0.533 | 0.543 | 0.561 | 0.528 | 0.622 | 0.746 | 1.31 | 0.477 | 0.447 | 0.573
0.99 | 0.595 | 1.45 | LSGVIYVILWK [PMP22_Y153_R157W] | 0.666 | 0.583 | 1.55 | 0.304 | 0.652 | 0.538 | 0.809 | 0.538 | 1.44 | 1.95 | 0.358 | 0.752 | 0.996
0.765 | 0.37 | 0.732 | LVTCSYLLGNS [LMNA_Y646_R644C] | 0.99 | 0.959 | 2.94 | 0.756 | 1.72 | 1.56 | 1.14 | 0.803 | 2.16 | 3.29 | 0.76 | 1.3 | 1.95
0.806 | 0.782 | 0.993 | KWLEQYTQAIE [LSP1_Y234_Q229K] | 0.39 | 0.442 | 0.915 | 0.454 | 0.573 | 0.683 | 0.499 | 0.441 | 1.04 | 0.977 | 0.472 | 0.452 | 0.702
0.715 | 4.51 | 0.85 | HIKHNYECLVF [XRCC5_Y416_YF] | 0.382 | 0.665 | 0.547 | 0.709 | 1.09 | 1.44 | 1.86 | 0.821 | 1.31 | 1.09 | 0.796 | 0.53 | 0.4
0.607 | 0.468 | 0.786 | ADLLDYIKALN [HPRT1_Y81] | 0.48 | 0.531 | 0.928 | 0.445 | 0.695 | 0.558 | 0.625 | 0.52 | 1.07 | 1.2 | 0.434 | 0.484 | 0.754
0.551 | 0.625 | 1.74 | VNFGAYINDFK [GLB1_Y488_YF] | 0.352 | 0.393 | 0.83 | 0.498 | 0.621 | 0.568 | 0.545 | 0.441 | 0.909 | 0.997 | 0.459 | 0.369 | 0.558
0.791 | 0.484 | 0.723 | LAAAGYDVEKN [H1-3_Y72] | 0.54 | 0.436 | 0.711 | 0.493 | 0.658 | 0.482 | 0.463 | 0.692 | 0.909 | 1.03 | 0.51 | 0.365 | 0.582
0.59 | 0.682 | 0.91 | AFHGEYIPTVF [RAC2_Y32_P29H] | 0.432 | 0.391 | 0.571 | 0.445 | 0.635 | 0.447 | 0.554 | 0.412 | 0.859 | 0.809 | 0.602 | 0.419 | 0.575
